The series deals with the molecule itself. Description: SEC-MALS. (In gel filtration, larger molecules generally elute earlier.)

B1: recombinant human ADA2 (adenosine deaminase 2), aa29-511 (enzyme, UniProt Q9NZK5 29-511, looked up)
chain: SIDETRAHLLLKEKMMRLGGRLVLNTKEELANERLMTLKIAEMKEAMRTLIFPPSMHFFQAKHLIERSQVFNILRMMPKGAALHLHDIGIVTMDWLVRNVTYRPHCHICFTPRGIMQFRFAHPTPRPSEKCSKWILLEDYRKRVQNVTEFDDSLLRNFTLVTQHPEVIYTNQNVVWSKFETIFFTISGLIHYAPVFRDYVFRSMQEFYEDNVLYMEIRARLLPVYELSGEHHDEEWSVKTYQEVAQKFVETHPEFIGIKIIYSDHRSKDVAVIAESIRMAMGLRIKFPTVVAGFDLVGHEDTGHSLHDYKEALMIPAKDGVKLPYFFHAGETDWQGTSIDRNILDALMLNTTRIGHGFALSKHPAVRTYSWKKDIPIEVCPISNQVLKLVSDLRNHPVATLMATGHPMVISSDDPAMFGAKGLSYDFYEVFMGIGGMKADLRTLKQLAMNSIKYSTLLESEKNTFMEIWKKRWDKFIADVATK
As for B1, the binding result was “binds”.

The record behind these values is article doi:10.1101/2020.06.21.162990 (bioRxiv, 2020).
